Assay results published in the supplement of paper PMC10567573.

B1: FBXO39 (parent)
chain: PSRVHASEVESAVWYVKKFGRYLE

Variants of: B1
Assay: protein stability index of a GFP-peptide fusion (GPS, HEK-293T) (PSI 1-6); higher = more stable
Details: c terminus: a fixed tail appended
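Also: lentivirally expressed fusions sorted by FACS into six bins by GFP to DsRed ratio, PSI derived from sequencing read proportions per bin multiplied by bin number.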

Row | Variant | protein stability index
1 | PSRVHASEVESAVWYVKMFGRYLE [K18M] | 1.82
2 | PSRVHASEVESAVWYVKLFGRYLE [K18L] | 1.79
3 | PSRVHASEVESAVWYVKHFGRYLE [K18H] | 1.89
4 | PSRVHASEVESAVWYVKEFGRYLE [K18E] | 2.37
5 | PSRVHASEVESAVWYVKSFGRYLE [K18S] | 1.81
6 | PSRVHASEVESAVWYVKVFGRYLE [K18V] | 1.75
7 | PSRVHASEVESAVWYVKTFGRYLE [K18T] | 1.73
8 | PSRVHASEVESAVWYVKIFGRYLE [K18I] | 2.93
9 | PSRVHASEVESAVWYVKPFGRYLE [K18P] | 2.07
10 | PSRVHASEVESAVWYVKAFGRYLE [K18A] | 1.65
11 | PSRVHASEVESAVWYVKYFGRYLE [K18Y] | 1.47
12 | PSRVHASEVESAVWYVKFFGRYLE [K18F] | 1.95
13 | PSRVHASEVESAVWYVKDFGRYLE [K18D] | 2.33
14 | PSRVHASEVESAVWYVKQFGRYLE [K18Q] | 1.75
15 | PSRVHASEVESAVWYVKRFGRYLE [K18R] | 1.5
16 | PSRVHASEVESAVWYVKWFGRYLE [K18W] | 2.4
17 | PSRVHASEVESAVWYVKGFGRYLE [K18G] | 2.02
18 | PSRVHASEVESAVWYVKCFGRYLE [K18C] | 2.36
19 | PSRVHASEVESAVWYVKNFGRYLE [K18N] | 1.88
20 | PSRVHASEVESAVWYVKKFGAYLE [R21A] | 1.74
21 | PSRVHASEVESAVWYVKKPGRYLE [F19P] | 2.72
22 | PSRVHASEVESAVWYVKKRGRYLE [F19R] | 2.88
23 | PSRVHASEVESAVWYVKKHGRYLE [F19H] | 3.06
24 | PSRVHASEVESAVWYVKKSGRYLE [F19S] | 2.42

Row | Variant | protein stability index
25 | PSRVHASEVESAVWYVKKNGRYLE [F19N] | 3.43
26 | PSRVHASEVESAVWYVKKWGRYLE [F19W] | 2.12
27 | PSRVHASEVESAVWYVKKVGRYLE [F19V] | 1.98
28 | PSRVHASEVESAVWYVKKQGRYLE [F19Q] | 2.79
29 | PSRVHASEVESAVWYVKKGGRYLE [F19G] | 3.17
30 | PSRVHASEVESAVWYVKKLGRYLE [F19L] | 2.22
31 | PSRVHASEVESAVWYVKKCGRYLE [F19C] | 2.04
32 | PSRVHASEVESAVWYVKKIGRYLE [F19I] | 1.88
33 | PSRVHASEVESAVWYVKKDGRYLE [F19D] | 3.27
34 | PSRVHASEVESAVWYVKKKGRYLE [F19K] | 3.32
35 | PSRVHASEVESAVWYVKKEGRYLE [F19E] | 3.76
36 | PSRVHASEVESAVWYVKKYGRYLE [F19Y] | 2.5
37 | PSRVHASEVESAVWYVKKAGRYLE [F19A] | 2.77
38 | PSRVHASEVESAVWYVKKTGRYLE [F19T] | 2.55
39 | PSRVHASEVESAVWYVKKMGRYLE [F19M] | 2.14
40 | PSRVHASEVESAVWYVKKFVRYLE [G20V] | 1.96
41 | PSRVHASEVESAVWYVKKFIRYLE [G20I] | 1.91
42 | PSRVHASEVESAVWYVKKFDRYLE [G20D] | 2.27
43 | PSRVHASEVESAVWYVKKFPRYLE [G20P] | 1.64
44 | PSRVHASEVESAVWYVKKFMRYLE [G20M] | 2.09
45 | PSRVHASEVESAVWYVKKFLRYLE [G20L] | 1.75
46 | PSRVHASEVESAVWYVKKFARYLE [G20A] | 3.14
47 | PSRVHASEVESAVWYVKKFRRYLE [G20R] | 2.1
48 | PSRVHASEVESAVWYVKKFYRYLE [G20Y] | 1.46

Row | Variant | protein stability index
49 | PSRVHASEVESAVWYVKKFTRYLE [G20T] | 1.28
50 | PSRVHASEVESAVWYVKKFQRYLE [G20Q] | 2.55
51 | PSRVHASEVESAVWYVKKFNRYLE [G20N] | 2.38
52 | PSRVHASEVESAVWYVKKFERYLE [G20E] | 2.95
53 | PSRVHASEVESAVWYVKKFWRYLE [G20W] | 2.97
54 | PSRVHASEVESAVWYVKKFHRYLE [G20H] | 1.62
55 | PSRVHASEVESAVWYVKKFKRYLE [G20K] | 2.19
56 | PSRVHASEVESAVWYVKKFFRYLE [G20F] | 1.55
57 | PSRVHASEVESAVWYVKKFSRYLE [G20S] | 2.04
58 | PSRVHASEVESAVWYVEKFGRYLE [K17E] | 2.35
59 | PSRVHASEVESAVWYVQKFGRYLE [K17Q] | 2.27
60 | PSRVHASEVESAVWYVSKFGRYLE [K17S] | 2.84
61 | PSRVHASEVESAVWYVFKFGRYLE [K17F] | 1.87
62 | PSRVHASEVESAVWYVCKFGRYLE [K17C] | 1.34
63 | PSRVHASEVESAVWYVWKFGRYLE [K17W] | 1.61
64 | PSRVHASEVESAVWYVYKFGRYLE [K17Y] | 2.66
65 | PSRVHASEVESAVWYVDKFGRYLE [K17D] | 2.25
66 | PSRVHASEVESAVWYVAKFGRYLE [K17A] | 2
67 | PSRVHASEVESAVWYVGKFGRYLE [K17G] | 2.57
68 | PSRVHASEVESAVWYVHKFGRYLE [K17H] | 2.1
69 | PSRVHASEVESAVWYVMKFGRYLE [K17M] | 1.91
70 | PSRVHASEVESAVWYVLKFGRYLE [K17L] | 2.52
71 | PSRVHASEVESAVWYVVKFGRYLE [K17V] | 1.9
72 | PSRVHASEVESAVWYVPKFGRYLE [K17P] | 1.89

Row | Variant | protein stability index
73 | PSRVHASEVESAVWYVRKFGRYLE [K17R] | 3.25
74 | PSRVHASEVESAVWYVIKFGRYLE [K17I] | 2.39
75 | PSRVHASEVESAVWYVNKFGRYLE [K17N] | 2.82
76 | PSRVHASEVESAVWYVTKFGRYLE [K17T] | 1.77
77 | PSRVHASEVESAVWYHKKFGRYLE [V16H] | 3.32
78 | PSRVHASEVESAVWYSKKFGRYLE [V16S] | 3.08
79 | PSRVHASEVESAVWYTKKFGRYLE [V16T] | 2.43
80 | PSRVHASEVESAVWYYKKFGRYLE [V16Y] | 2.44
81 | PSRVHASEVESAVWYWKKFGRYLE [V16W] | 2.27
82 | PSRVHASEVESAVWYRKKFGRYLE [V16R] | 3.17
83 | PSRVHASEVESAVWYMKKFGRYLE [V16M] | 2.65
84 | PSRVHASEVESAVWYQKKFGRYLE [V16Q] | 2.5
85 | PSRVHASEVESAVWYNKKFGRYLE [V16N] | 3.18
86 | PSRVHASEVESAVWYFKKFGRYLE [V16F] | 1.83
87 | PSRVHASEVESAVWYCKKFGRYLE [V16C] | 2.65
88 | PSRVHASEVESAVWYLKKFGRYLE [V16L] | 1.87
89 | PSRVHASEVESAVWYDKKFGRYLE [V16D] | 3.18
90 | PSRVHASEVESAVWYKKKFGRYLE [V16K] | 3.01
91 | PSRVHASEVESAVWYPKKFGRYLE [V16P] | 2.54
92 | PSRVHASEVESAVWYGKKFGRYLE [V16G] | 2.81
93 | PSRVHASEVESAVWYIKKFGRYLE [V16I] | 1.72
94 | PSRVHASEVESAVWYEKKFGRYLE [V16E] | 2.96
